Reference: the supplement of paper PMC10567573

B1: ZNF649 (parent)
chain: EHERAHRGEKPHGCSLCGKAFYKR

Variants of: B1
Assay: protein stability index of a GFP-peptide fusion (GPS, HEK-293T) (PSI 1-6); higher = more stable
Details: c terminus: a fixed tail appended
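Note: lentivirally expressed fusions sorted by FACS into six bins by GFP to DsRed ratio, PSI derived from sequencing read proportions per bin multiplied by bin number.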

Variant | protein stability index
EHVRAHRGEKPHGCSLCGKAFYKR | 3.49
EHHRAHRGEKPHGCSLCGKAFYKR | 2.72
EHARAHRGEKPHGCSLCGKAFYKR | 1.5
EHERAHRGEKPHGCSLCWKAFYKR | 1.54
EHERAHRGEKPHGCSLCIKAFYKR | 1.67
EHERAHRGEKPHGCSLCNKAFYKR | 2.49
EHERAHRGEKPHGCSLCKKAFYKR | 2.03
EHERAHRGEEPHGCSLCGKAFYKR | 2.87
EHERAHRGEVPHGCSLCGKAFYKR | 1.76
EHERAHRGEAPHGCSLCGKAFYKR | 2.12
EHERAHRGEQPHGCSLCGKAFYKR | 3.07
EHERAHRGESPHGCSLCGKAFYKR | 1.66
PHERAHRGEKPHGCSLCGKAFYKR | 2.15
KHERAHRGEKPHGCSLCGKAFYKR | 3.37
AHERAHRGEKPHGCSLCGKAFYKR | 2.16
MHERAHRGEKPHGCSLCGKAFYKR | 1.88
THERAHRGEKPHGCSLCGKAFYKR | 3.46
WHERAHRGEKPHGCSLCGKAFYKR | 1.85
EHERAHRGEKPHGCSLCGKAMYKR | 2.37
EHERAHRGEKPHGCSLCGKATYKR | 2.14
EHERAHRGEKPHGCSLCGKADYKR | 2.34
EHERAHRGEKPHGCSLCGKAPYKR | 2.74
EHERAHKGEKPHGCSLCGKAFYKR | 2.34
EHERAHCGEKPHGCSLCGKAFYKR | 1.65

Variant | protein stability index
EHERAHIGEKPHGCSLCGKAFYKR | 1.69
EHERAHDGEKPHGCSLCGKAFYKR | 1.98
EHERAHYGEKPHGCSLCGKAFYKR | 1.82
EHERAHGGEKPHGCSLCGKAFYKR | 1.61
EHERAHRGEKMHGCSLCGKAFYKR | 2.31
EHERAHRGEKHHGCSLCGKAFYKR | 2.41
EHERAHRGEKPHMCSLCGKAFYKR | 3.08
EHERAHRGEKPHVCSLCGKAFYKR | 2.03
ECERAHRGEKPHGCSLCGKAFYKR | 2.01
EGERAHRGEKPHGCSLCGKAFYKR | 1.02
EPERAHRGEKPHGCSLCGKAFYKR | 1.98
EIERAHRGEKPHGCSLCGKAFYKR | 2
ELERAHRGEKPHGCSLCGKAFYKR | 1.6
EHENAHRGEKPHGCSLCGKAFYKR | 2.23
EHEPAHRGEKPHGCSLCGKAFYKR | 2.6
EHETAHRGEKPHGCSLCGKAFYKR | 1.95
EHEAAHRGEKPHGCSLCGKAFYKR | 1.97
EHERAHRGEKPHGNSLCGKAFYKR | 4.12
EHERAHRGEKPHGCELCGKAFYKR | 2.21
EHERAHRGEKPHGCKLCGKAFYKR | 3.12
EHERAHRGEKPHGCVLCGKAFYKR | 1.67
EHERAHRGEKPKGCSLCGKAFYKR | 2.49
EHERAHRGEKPAGCSLCGKAFYKR | 2.74
EHERAHRGEKPFGCSLCGKAFYKR | 3.39

Variant | protein stability index
EHERAHRGEKPEGCSLCGKAFYKR | 2
EHERAHRGEKPCGCSLCGKAFYKR | 1.46
EHERAHRGEKPHGCSLCGKAFYKQ | 4.13
EHERAHRGEKPHGCSLCGKAFYKP | 3
EHERAHRGEKPHGCSLCGKAFYKF | 2.65
EHERAHRGEKPHGCSLCGKAFYKI | 2.81
EHERAQRGEKPHGCSLCGKAFYKR | 1.31
EHERADRGEKPHGCSLCGKAFYKR | 2.01
EHERAHRGEKPHGCSLCGKVFYKR | 1.79
EHERAHRGEKPHGCSLCGKCFYKR | 2
EHERAHRGEKPHGCSLCGKHFYKR | 3.2
EHERAHRGEKPHGCSLCGKKFYKR | 2.74
EHERAHRHEKPHGCSLCGKAFYKR | 2.83
EHERAHRPEKPHGCSLCGKAFYKR | 2.78
EHERAHRNEKPHGCSLCGKAFYKR | 2.12
EHERAHRGEKPHGCSLCGKAFYLR | 1.77
EHERAHRGEKPHGCSLCGKAFYRR | 3.06
EHERAHRGEKPHGCSLCGKAFYSR | 2.03
EHERAHRGEKPHGCSLCGKAFYCR | 2.64
EHERAHRGEKPHGCSLLGKAFYKR | 3.64
EHERAHRGEKPHGCSLKGKAFYKR | 4.13
EHERAHRGEKPHGCSLNGKAFYKR | 4.44
EHERAHRGEKPHGCSLDGKAFYKR | 4.19
EHERAHRGEKPHGCSLTGKAFYKR | 4.48

Variant | protein stability index
EHERAHRGEKPHGCSECGKAFYKR | 3.8
EHERAHRGEKPHGCSICGKAFYKR | 2.2
EHERAHRGEKPHGCSSCGKAFYKR | 1.97
EHERAHRGHKPHGCSLCGKAFYKR | 2.13
EHERAHRGRKPHGCSLCGKAFYKR | 3.66
EHERAHRGNKPHGCSLCGKAFYKR | 1.85
EHERAHRGSKPHGCSLCGKAFYKR | 1.72
EHERAHRGEKPHGCSLCGCAFYKR | 1.78
EHERAHRGEKPHGCSLCGEAFYKR | 1.73
EHERAHRGEKPHGCSLCGNAFYKR | 2.43
EHERAHRGEKPHGCSLCGDAFYKR | 2.13
EHERAHRGEKPHGCSLCGGAFYKR | 1.41
EHERAHRGEKPHGCSLCGIAFYKR | 1.61
EHERTHRGEKPHGCSLCGKAFYKR | 3.23
EHERLHRGEKPHGCSLCGKAFYKR | 2.24
EHERIHRGEKPHGCSLCGKAFYKR | 1.34
EHERQHRGEKPHGCSLCGKAFYKR | 2.42
EHERRHRGEKPHGCSLCGKAFYKR | 2.76
EHERCHRGEKPHGCSLCGKAFYKR | 2.8
EHERAHRGEKPHGCSLCGKAFWKR | 1.81
EHERAHRGEKPHGCSLCGKAFKKR | 3.13
EHERAHRGEKPHGCSLCGKAFQKR | 2.36
